Results from patent US6812017B2, “Mammalian secreted group IIF phospholipase A2” (Centre National de la Recherche Scientique - CNRS, priority 2000, dated 2004).
One block for each molecule: values may come before it.

Tests used:
[1] = from references [8], [16]; cited from earlier work
[2] = Substrate specificity, fatty acid binding protein assay on phospholipid vesicles; type: biochemical; conditions: 30 μM vesicles, 1 mM Ca2+, 37° C.
Protocol: (§1) FIGS. 4A-4C represent the enzymatic properties of recombinant hGIIF sPLA2. […] Full experimental details are provided in materials and methods.
(§2) The Ca^2+ and pH dependencies of hGIIF sPLA2 were measured with POPC vesicles containing 1-palmitoyl-2-[1-^3H]palmitoyl-sn-glycero-3-phospho9choline vesicles and POPG vesicles containing 1-palmitoyl-2-[1-^3H]palmitoyl-sn-glycero-3-phosphoglyceril, respectively. Substrate specificity studies were carried out using a slightly modified assay with the fatty acid binding protein [7]. Reaction mixtures contained 30 μM POPC, POPG, or POPS (1-Palmitoyl-2-Oleoyl-sn-Glcero-3-phosphoserine) large […] vesicles (0.1 μm, prepared by extrusion as described [222[) in Hanks' balanced salt solution with 1 mM Ca^2+, 1 mM Mg^2+, 9.7 μg fatty acid binding protein, and 1 μm 11-dansyl-undecanoic acid at 37° C. Assays were calibrated by adding a known amount of oleic acid to the complete assay in the absence of enzyme.

[3] = pH-dependence of the hydrolysis of phosphatidylglycerol vesicles; type: biochemical
Protocol: as §1, §2

[4] = Ca2+-dependence of the hydrolysis of phosphatidylcholine vesicles; type: biochemical
Protocol: as §1, §2

B1: hGV: human group V secreted phospholipase A2 (protein)
chain: MKGLLPLAWFLACSVPAVQGGLLDLKSMIEKVTGKNALTNYGFYGCYCGWGGRGTPKDGTDWCCWAHDHCYGRLEEKGCNIRTQSYKYRFAWGVVTCEPGPFCHVNLCACDRKLVYCLKRNLRSYNPQYQYFPNILCS
- preference for POPG versus POPC vesicles [1]: 3 fold

B2: hGIIA sPLA2: human group IIA secreted phospholipase A2 (protein)
chain: MKTLLLLAVIMIFGLLQAHGNLVNFHRMIKLTTGKEAALSYGFYGCHCGVGGRGSPKDATDRCCVTHDCCYKRLEKRGCGTKFLSYKFSNSGSRITCAKQDSCRSQLCECDKAAATCFARNKTTYNKKYQYYSNKHCRGSTPRC
- preference for POPG versus POPC vesicles [1]: greater than 10^5 fold

- rate of POPC hydrolysis relative to rate of POPG [2]: ~6%
- relative rates for the hydrolysis of POPG, POPS, and POPC vesicles [2]: highest with anionic POPG vesicles
B3: hGIIF sPLA2: novel human secreted group IIF phospholipase A2, recombinantly expressed in E. coli; 168 amino acid sequence, mature protein 148 residues (protein)
chain: MKKFFTVAILAGSVLSTAHGSLLNLKAMVEAVTGRSAILSFVGYGCYCGLGGRGQPKDEVDWCCHAHDCCYQELFDQGCHPYVDHYDHTIENNTEIVCSDLNKTECDKQTCMCDKNMVLCLMNQTYREEYRGFLNVYCQGPTPNCSIYEPPPEEVTCSHQSPAPPAPP
- rate of hydrolysis of phosphatidylglycerol vesicles versus pH [3]: increases with pH in the range 5-7
- apparent KCa2+ ([4]; PC vesicles as substrate, hyperbolic dependence on Ca2+ concentration): 140 ± 40 µM
- Ca2+ dependence of hydrolysis of phospholipid vesicles ([4]; phospholipid vesicles): strictly Ca^2+ dependent

B4: hGX: human group X secreted phospholipase A2 (protein)
chain: MLLLLLPSLLLLLLLPGPGSGEASRILRVHRRGILELAGTVGCVGPRTPIAYMKYGCFCGLGGHGQPRDAIDWCCHGHDCCYTRAEEAGCSPKTERYSWQCVNQSVLCGPAENKCQELLCKCDQEIANCLAQTEYNLKYLFYPQFLCEPDSPKCD
- preference for POPG versus POPC vesicles [1]: 10 fold
